Test results published in patent US20160115500A1 (University of California, published 2016).
Substitutions are numbered along the chain they refer to.

Columns and labels:
[1] = molecular target: GAL4 activation domain fusion (ACT) to HAB1 (UniProt Q9CAJ0); test: yeast two-hybrid, X-gal; lowest mandipropamid concentration giving signal
6×-His-PYR1^MANDI = molecular target: T1, 6×-His-PYR1^MANDI
T1 chain: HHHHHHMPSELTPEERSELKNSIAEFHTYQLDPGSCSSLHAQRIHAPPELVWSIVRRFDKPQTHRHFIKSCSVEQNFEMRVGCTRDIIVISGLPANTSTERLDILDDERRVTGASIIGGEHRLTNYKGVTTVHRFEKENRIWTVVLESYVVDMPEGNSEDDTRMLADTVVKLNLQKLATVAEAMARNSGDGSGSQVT

[2] = molecular target: T2, 6×-His tagged PYR1^K59R,F108A,S122G
T2 chain: T1 chain with H64Y, I87V, L165F

GST-ABI1 = molecular target: T3, GST-ABI1 (UniProt P49597 1-434); test: cell-based or functional assay
T3 sequence (looked up): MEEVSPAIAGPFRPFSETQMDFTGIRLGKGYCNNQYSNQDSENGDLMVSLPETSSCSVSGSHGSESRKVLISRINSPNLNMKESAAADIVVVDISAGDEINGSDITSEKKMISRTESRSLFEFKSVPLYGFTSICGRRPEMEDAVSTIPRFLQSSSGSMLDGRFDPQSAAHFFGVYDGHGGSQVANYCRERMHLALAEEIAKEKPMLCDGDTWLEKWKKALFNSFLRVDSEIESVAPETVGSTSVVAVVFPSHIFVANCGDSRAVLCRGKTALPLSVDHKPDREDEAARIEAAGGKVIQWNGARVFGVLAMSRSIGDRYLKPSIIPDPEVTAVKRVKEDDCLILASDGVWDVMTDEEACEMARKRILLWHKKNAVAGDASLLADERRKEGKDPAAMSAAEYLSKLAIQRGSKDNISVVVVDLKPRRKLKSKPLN

GST-HAB1 = molecular target: T4, GST-HAB1 (UniProt Q9CAJ0 23-511); test: cell-based or functional assay
T4 sequence (looked up): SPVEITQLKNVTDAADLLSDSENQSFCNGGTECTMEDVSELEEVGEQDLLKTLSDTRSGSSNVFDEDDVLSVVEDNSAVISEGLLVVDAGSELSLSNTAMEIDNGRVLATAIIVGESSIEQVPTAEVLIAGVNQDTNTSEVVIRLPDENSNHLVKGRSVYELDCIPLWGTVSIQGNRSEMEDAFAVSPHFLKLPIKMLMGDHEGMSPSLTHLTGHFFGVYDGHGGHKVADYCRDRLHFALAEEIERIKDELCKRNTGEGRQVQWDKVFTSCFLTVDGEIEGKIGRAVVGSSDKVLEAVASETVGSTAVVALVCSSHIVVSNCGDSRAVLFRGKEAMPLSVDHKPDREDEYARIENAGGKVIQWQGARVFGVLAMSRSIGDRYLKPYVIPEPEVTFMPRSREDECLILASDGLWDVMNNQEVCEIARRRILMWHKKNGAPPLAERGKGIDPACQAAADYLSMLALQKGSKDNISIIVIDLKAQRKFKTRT

GST-ABI2 = molecular target: T5, GST-ABI2 (UniProt O04719 1-423); test: cell-based or functional assay
T5 sequence (looked up): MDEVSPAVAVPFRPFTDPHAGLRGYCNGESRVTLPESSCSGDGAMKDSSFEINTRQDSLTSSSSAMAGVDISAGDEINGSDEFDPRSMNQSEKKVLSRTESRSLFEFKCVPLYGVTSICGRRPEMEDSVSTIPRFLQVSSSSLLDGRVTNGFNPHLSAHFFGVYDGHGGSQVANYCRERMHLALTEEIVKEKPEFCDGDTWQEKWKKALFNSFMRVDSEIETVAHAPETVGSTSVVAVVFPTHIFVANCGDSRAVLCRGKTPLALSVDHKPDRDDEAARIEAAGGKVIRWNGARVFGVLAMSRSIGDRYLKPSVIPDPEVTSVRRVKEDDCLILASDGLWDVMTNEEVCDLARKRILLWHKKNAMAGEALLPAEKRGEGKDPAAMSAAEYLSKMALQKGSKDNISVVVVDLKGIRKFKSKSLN

“PYR1^Y58H,K59R,V81I,F108A,F159L (from UniProt P04386 1-147) (receptor)” gave a Threshold [1] of 0.01 µM.

B1: GST-ABI2 (protein)
chain: T5 sequence (looked up)
With B1 the “PP2C activity (pNPP substrate), 600 nM PP2C and 1200 nM receptor” value (from here on “PP2C activity (pNPP substrate)”) (6×-His-PYR1^MANDI) was “saturable inhibition of HAB1 and ABI2 PP2C activity by mandipropamid in the presence of PYR1^MANDI” and the “PP2C activity (pNPP substrate)” value [2] was “saturable inhibition of HAB1 and ABI2 PP2C activity by mandipropamid in the presence of PYR1^MANDI (FIG. 1A, bottom lines) and PYR1^K59R,F108A,S122G”.

B2: GST-HAB1 (protein)
chain: T4 sequence (looked up)
B2 was tested, and the “PP2C activity (pNPP substrate)” value (6×-His-PYR1^MANDI) was “saturable inhibition of HAB1 and ABI2 PP2C activity by mandipropamid in the presence of PYR1^MANDI” and the “PP2C activity (pNPP substrate)” value [2] was “saturable inhibition of HAB1 and ABI2 PP2C activity by mandipropamid in the presence of PYR1^MANDI (FIG. 1A, bottom lines) and PYR1^K59R,F108A,S122G”.

B3: 6×-His-PYR1^MANDI (receptor)
chain: T1 chain
For B3, the “IC50 of mandipropamid mediated inhibition of PP2C activity (4-methylumbelliferyl-phosphate substrate)” value (GST-ABI1) was 26.8 nM, the “IC50 of mandipropamid mediated inhibition of PP2C activity (4-methylumbelliferyl-phosphate substrate)” value (GST-HAB1) was 32.2 nM and the “IC50 of mandipropamid mediated inhibition of PP2C activity (4-methylumbelliferyl-phosphate substrate)” value (GST-ABI2) was 75.5 nM.
